# In publication PMC8897147:
# B1: RAMP1-Ypet (receptor activity-modulating protein 1), O60894 27-148 (natural protein)
# chain: CQEANYGALLRELCLTQFQVDMEAVGETLWCDWGRTIRSYRELADCTWHMAEKLGCFWPNAEVDRFFLAVHGRYFRSCPISGRAVRDPPGSILYPFIVVPITVTLLVTALVVWQSKRTEGIV
# B2: RAMP3-Ypet (receptor activity-modulating protein 3) (natural protein)
# chain: RAGGCNETGMLERLPLCGKAFADMMGKVDVWKWCNLSEFIVYYESFTNCTEMEANVVGCYWPNPLAQGFITGIHRQFFSNCTVDRVHLEDPPDEVLIPLIVIPVVLTVAMAGLVVWRSKRTDTLL
# B3: RAMP2-Ypet (receptor activity-modulating protein 2), O60895 43-175 (natural protein)
# chain: QPLPTTGTPGSEGGTVKNYETAVQFCWNHYKDQMDPIEKDWCDWAMISRPYSTLRDCLEHFAELFDLGFPNPLAERIIFETHQIHFANCSLVQPTFSDPPEDVLLAMIIAPICLIPFLITLVVWRSKDSEAQA
# How the values were obtained:
# Experiment in all cases: FRET or BRET
# [1] = target: T1, growth hormone-releasing hormone receptor-Rluc8, Q02643; details: remark: other sources report otherwise
# T1 chain: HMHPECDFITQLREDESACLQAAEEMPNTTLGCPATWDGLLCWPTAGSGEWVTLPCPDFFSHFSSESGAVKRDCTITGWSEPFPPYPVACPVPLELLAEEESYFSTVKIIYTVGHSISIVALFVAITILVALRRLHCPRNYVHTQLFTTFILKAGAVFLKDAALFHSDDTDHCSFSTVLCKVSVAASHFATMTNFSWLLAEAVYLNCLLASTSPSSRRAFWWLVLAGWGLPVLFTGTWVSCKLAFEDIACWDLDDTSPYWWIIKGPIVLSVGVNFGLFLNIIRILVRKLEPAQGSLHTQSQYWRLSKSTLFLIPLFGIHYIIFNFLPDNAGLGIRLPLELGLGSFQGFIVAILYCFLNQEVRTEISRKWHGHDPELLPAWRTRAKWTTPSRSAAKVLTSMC
# [2] = target: secretin receptor-Rluc8, P47872; details: remark: other sources report otherwise
# [3] = target: T2, glucagon-like peptide-1 receptor-Rluc8, P43220; details: remark: other sources report otherwise
# T2 chain: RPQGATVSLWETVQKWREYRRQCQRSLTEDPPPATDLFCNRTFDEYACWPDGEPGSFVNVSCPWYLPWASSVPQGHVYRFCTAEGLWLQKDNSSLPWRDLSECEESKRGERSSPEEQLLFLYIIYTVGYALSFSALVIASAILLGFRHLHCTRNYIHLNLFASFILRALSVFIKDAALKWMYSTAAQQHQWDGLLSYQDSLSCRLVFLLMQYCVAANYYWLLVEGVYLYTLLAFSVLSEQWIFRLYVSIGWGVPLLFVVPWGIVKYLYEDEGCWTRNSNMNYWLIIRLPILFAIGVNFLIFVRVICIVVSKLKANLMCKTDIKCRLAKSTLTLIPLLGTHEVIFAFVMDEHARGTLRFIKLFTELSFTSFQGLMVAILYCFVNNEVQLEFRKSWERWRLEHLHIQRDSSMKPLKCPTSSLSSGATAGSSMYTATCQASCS
# [4] = target: SV1, splice variant of GHRHR, -Rluc8
# Sequence of secretin receptor-Rluc8, P47872 (P47872 23-440): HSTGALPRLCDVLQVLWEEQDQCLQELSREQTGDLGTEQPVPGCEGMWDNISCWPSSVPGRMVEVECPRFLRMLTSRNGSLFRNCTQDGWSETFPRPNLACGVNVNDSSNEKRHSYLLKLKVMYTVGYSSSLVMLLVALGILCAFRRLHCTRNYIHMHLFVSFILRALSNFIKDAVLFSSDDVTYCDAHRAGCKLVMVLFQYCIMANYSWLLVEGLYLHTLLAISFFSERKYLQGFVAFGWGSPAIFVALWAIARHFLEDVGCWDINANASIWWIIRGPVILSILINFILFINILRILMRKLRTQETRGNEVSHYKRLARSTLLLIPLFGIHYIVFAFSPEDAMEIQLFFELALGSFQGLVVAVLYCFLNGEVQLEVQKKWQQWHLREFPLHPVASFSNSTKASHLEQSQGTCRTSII
binder,measurement,setting,value
B1,BRET50 (Kd) (intensity ratio of RAMP:receptor),[1],2.43
same,BRET50 (Kd) (intensity ratio of RAMP:receptor),[2],1.3
same,BRET50 (Kd) (intensity ratio of RAMP:receptor),[3],10.9
B2,BRET50 (Kd) (intensity ratio of RAMP:receptor),[4],5.98
B3,BRET50 (Kd) (intensity ratio of RAMP:receptor),[2],2.41
same,BRET50 (Kd) (intensity ratio of RAMP:receptor),[3],2.23
